Article PMC8808741

B1: T18.3 (structured_RNA)
RNA: GGACUUGGAUAACCUCACCGCAAUGGCGGCUUGUCAGACGACUCGCUGAGGAUCCGAG
modifications: all C and U 2'-fluoro
B2: Mut1 (structured_RNA)
RNA: GGACUUGGAUAACCUCACCGCAAUGGCGGAGGGUCAGACGACUCGCUGAGGAUCCGAG
modifications: all C and U 2'-fluoro
B3: T18.3-Bio (structured_RNA)
RNA: GGACUUGGAUAACCUCACCGCAAUGGCGGCUUGUCAGACGACUCGCUGAGGAUCCGAG
modifications: all C and U 2'-fluoro

Tests used:
[1] = target: T1, FVa (activated factor V) (human, UniProt P12259;P12259 29-737;1574-2224); assay: filter binding
[2] = target: prothrombin (FII) (UniProt P00734 44-622); assay: filter binding
[3] = target: T2, modified FV (B-domain-truncated factor V) (human, UniProt P12259 29-838+1520-2224, R737Q;R1573Q;internal_change); assay: filter binding
[4] = target: FVIII (UniProt P00451 20-2351); assay: filter binding
FVIII, sequence (P00451 20-2351): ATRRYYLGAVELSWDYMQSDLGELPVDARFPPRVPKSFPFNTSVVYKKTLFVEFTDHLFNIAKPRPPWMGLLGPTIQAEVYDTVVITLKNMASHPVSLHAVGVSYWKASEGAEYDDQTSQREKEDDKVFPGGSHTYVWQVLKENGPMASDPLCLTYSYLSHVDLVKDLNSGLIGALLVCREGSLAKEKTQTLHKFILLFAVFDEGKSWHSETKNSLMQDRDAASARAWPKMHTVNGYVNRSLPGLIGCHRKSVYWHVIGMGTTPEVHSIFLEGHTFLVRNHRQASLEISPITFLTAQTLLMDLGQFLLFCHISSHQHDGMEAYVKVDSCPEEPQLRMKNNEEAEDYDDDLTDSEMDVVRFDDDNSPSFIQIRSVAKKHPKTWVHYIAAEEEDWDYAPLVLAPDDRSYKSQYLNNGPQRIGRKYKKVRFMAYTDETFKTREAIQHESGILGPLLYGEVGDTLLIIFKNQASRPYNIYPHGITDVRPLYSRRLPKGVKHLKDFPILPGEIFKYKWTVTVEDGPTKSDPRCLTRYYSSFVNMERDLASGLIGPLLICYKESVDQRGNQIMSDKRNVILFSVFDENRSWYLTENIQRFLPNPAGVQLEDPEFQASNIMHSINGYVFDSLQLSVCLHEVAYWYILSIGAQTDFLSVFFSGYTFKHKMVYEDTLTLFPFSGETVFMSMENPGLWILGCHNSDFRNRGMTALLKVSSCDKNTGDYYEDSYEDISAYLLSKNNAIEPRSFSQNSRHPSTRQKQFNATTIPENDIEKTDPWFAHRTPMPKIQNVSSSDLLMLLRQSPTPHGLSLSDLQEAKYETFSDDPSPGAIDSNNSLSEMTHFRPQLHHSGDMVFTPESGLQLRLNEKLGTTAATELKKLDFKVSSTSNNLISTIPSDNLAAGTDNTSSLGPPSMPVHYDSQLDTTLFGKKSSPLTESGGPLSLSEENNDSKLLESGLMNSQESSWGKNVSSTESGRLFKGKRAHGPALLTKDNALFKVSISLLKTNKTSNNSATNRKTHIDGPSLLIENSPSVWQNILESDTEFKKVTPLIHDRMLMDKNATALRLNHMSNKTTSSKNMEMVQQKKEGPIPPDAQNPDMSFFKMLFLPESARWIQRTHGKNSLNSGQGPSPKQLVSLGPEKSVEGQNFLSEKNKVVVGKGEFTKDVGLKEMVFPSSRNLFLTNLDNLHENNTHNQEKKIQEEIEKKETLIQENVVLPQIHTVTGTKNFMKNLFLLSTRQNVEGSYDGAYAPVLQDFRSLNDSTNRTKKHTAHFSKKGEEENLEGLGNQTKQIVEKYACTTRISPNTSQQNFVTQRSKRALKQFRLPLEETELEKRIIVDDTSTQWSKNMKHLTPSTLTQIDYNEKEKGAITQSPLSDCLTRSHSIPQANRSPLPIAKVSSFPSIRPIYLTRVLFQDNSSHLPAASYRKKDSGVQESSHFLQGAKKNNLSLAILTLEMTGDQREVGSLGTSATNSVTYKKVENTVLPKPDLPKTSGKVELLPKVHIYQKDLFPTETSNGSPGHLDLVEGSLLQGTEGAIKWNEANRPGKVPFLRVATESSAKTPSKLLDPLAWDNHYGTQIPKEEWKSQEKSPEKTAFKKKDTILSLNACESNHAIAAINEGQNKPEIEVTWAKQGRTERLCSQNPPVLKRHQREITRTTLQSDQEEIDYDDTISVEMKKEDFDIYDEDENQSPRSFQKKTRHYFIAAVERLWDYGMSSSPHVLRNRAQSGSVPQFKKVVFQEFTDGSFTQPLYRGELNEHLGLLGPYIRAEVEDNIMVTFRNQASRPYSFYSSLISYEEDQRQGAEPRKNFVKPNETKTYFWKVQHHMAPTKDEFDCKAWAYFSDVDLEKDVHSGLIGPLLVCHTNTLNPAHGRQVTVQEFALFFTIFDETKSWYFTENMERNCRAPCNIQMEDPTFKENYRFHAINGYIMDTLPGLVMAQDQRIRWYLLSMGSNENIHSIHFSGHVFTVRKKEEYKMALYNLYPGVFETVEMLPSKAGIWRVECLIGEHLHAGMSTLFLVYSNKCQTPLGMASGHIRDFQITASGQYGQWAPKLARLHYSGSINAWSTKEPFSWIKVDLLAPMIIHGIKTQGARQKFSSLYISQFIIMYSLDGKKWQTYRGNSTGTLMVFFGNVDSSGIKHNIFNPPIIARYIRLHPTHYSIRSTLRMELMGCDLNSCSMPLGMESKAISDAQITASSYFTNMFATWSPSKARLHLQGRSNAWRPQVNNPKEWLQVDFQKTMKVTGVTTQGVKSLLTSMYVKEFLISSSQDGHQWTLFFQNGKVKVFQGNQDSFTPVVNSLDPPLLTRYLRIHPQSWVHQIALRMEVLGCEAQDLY

[5] = target: FX (UniProt P00742;P00742 41-179;183-488); assay: filter binding
FX, sequence (P00742 41-179, chain 1 of 2): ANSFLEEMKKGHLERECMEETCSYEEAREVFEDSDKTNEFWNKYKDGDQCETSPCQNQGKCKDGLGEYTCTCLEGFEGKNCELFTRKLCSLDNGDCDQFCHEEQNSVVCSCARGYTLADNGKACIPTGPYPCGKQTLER
FX, sequence (P00742 183-488, chain 2 of 2): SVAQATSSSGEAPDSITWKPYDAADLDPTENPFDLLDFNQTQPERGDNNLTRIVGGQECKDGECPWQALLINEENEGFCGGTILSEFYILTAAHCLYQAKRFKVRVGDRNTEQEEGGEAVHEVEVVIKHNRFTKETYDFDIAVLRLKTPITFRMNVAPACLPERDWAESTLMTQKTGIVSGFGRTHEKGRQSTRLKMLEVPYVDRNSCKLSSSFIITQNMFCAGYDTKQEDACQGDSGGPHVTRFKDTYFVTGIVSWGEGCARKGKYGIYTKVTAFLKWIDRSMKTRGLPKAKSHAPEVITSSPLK

[6] = target: FXa (UniProt P00742;P00742 41-179;235-488); assay: filter binding
FXa, sequence (P00742 41-179, chain 1 of 2): as the sequence (P00742 41-179, chain 1 of 2) above
FXa, sequence (P00742 235-488, chain 2 of 2): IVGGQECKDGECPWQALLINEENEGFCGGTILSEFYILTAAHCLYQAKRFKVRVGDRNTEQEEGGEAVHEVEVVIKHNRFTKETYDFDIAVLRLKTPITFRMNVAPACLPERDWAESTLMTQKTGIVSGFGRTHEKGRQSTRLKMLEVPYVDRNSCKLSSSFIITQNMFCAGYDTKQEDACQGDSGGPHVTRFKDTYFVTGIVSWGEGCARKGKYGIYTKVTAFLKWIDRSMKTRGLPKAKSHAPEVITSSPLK

[7] = target: thrombin (FIIa) (UniProt P00734;P00734 315-363;364-622); assay: filter binding
[8] = target: T1, FVa (activated factor V); assay: filter binding; remark: listed apart in the source
[9] = target: FVa heavy chain (UniProt P12259 29-737); assay: SPR
[10] = target: FVa light chain (UniProt P12259 1574-2224); assay: SPR
[11] = target: T2, modified FV (B-domain-truncated factor …); assay: SPR
[12] = target: T1, FVa (activated factor V); assay: SPR

Row | Binder | Kd [1] [nM] | binding result [2] | Kd [3] [nM] | binding result [4] | binding result [5] | binding result [6] | binding result [7] | Kd [8] [nM] | Kd [9] [nM] | Kd [10] [nM] | Kd [11] [nM] | Kd [12] [nM]
1 | B1 | 0.99 | no binding | 28 | no binding | no binding | no binding | no binding | – | – | – | – | –
2 | B2 | – | – | 410 ± 46 | – | – | – | – | 359 ± 323 | – | – | – | –
3 | B3 | – | – | – | – | – | – | – | – | 113 ± 43 | 3.33 ± 0.69 | 11.4 ± 3 | 4.73 ± 0.69
